Assay results: US20050085420A1, “Method of modulating apoptosis and compositions thereof” (priority 2003, published 2005)

Experiments:
[1] = tested on: BAK-X complex; assay: DSS cross-linking of BAK-X complex in FL5.12 cells treated with death stimuli; assay type: cell-based; conditions: TNFα plus cyclohexamide 5 hours, etoposide (VP16) 24 hours, 10 mM DSS
Protocol: FIG. 1B is an illustration depicting the treatment of FL5.12 cells with either TNFα plus cyclohexamide (CHX) for 5 hours (lane 3), etoposide (VP16) for 24 hours (lane 4), or deprived of IL-3 for 18 hours (lane 5), followed by incubation with 10 mM DSS. The BAK-X complex was detected in whole cell lysates by an immunoblot developed with anti-BAK antibody.
Protein crosslinkers were used to search for a candidate protein that interacts with BAK at the mitochondria in viable cells. A ˜60 kD mobility-shifted complex immunoreactive with an antibody (Ab) to BAK was detected after treatment of purified mitochondria (FIG. 1A) or viable whole cells (FIG. 1B) with the crosslinker disuccinimidyl suberate (DSS). This presumed complex between BAK and a candidate ˜35 kD interacting protein was designated “BAK-X.” The ˜60 kD BAK-X complex was distinct in size as compared to BAK homo-oligomers detected by bismaleimidohexane (BMH) crosslinking (FIG. 1A). The same sized BAK complex was detected in multiple cell lines and in normal liver prior to death stimuli (FIG. 1C). The BAK-X complex was lost when mitochondria were treated with tBID (FIG. 1A, C) or cells were treated with death stimuli including TNFα, etoposide, or withdrawal of survival factor (FIG. 1B). Expression of BH3-only members BAD, BIM, or tBID killed cells and diminished the amount of BAK-X complex (FIG. 1D). […]

[2] = tested on: Bax -/- MEFs; assay: Annexin-V cell death after retroviral expression of VDAC1 or VDAC2 in Bax -/- MEFs; assay type: cell-based, mouse; conditions: Bax -/- cells, retroviral expression, 1.2 μM staurosporine or 10 μg/ml etoposide, Annexin-V
Protocol: (§1) FIG. 3A are two graphs illustrating Bax -/- or Bak -/- MEFs at 2 days following retroviral expression of VDAC1, VDAC2, or GFP (MIG vector control), wherein the Bax -/- or Bak -/- MEFs were treated with 1.2 μM staurosporine (STS). Cell death was quantitated by flow cytometric detection of Annexin-V staining at indicated time points. Values shown are mean ±1 SD of three independent experiments.
(§2) FIG. 3B is a histogram depicting Bax -/- or Bak -/- MEFs at 2 days following retroviral expression of VDAC2 or GFP (MIG vector control), wherein the Bax -/- or Bak -/- MEFs were infected with tBID-expressing retrovirus. Cell death was quantitated by flow cytometric detection of Annexin-V staining at 24 hr. Values shown are mean ±1 SD of three independent experiments.
as §1, with “6” for “3A”, “that depict” for “illustrating”, “10 μg/ml etoposide.” for “1.2 μM staurosporine (STS).”
(§3) Previous studies have shown that cells doubly deficient for BAX and BAK are resistant to intrinsic death stimuli, whereas cells singly deficient for BAX or BAK are still susceptible (M. C. Wei et al., Science 292, 727-30. (2001)). As VDAC2 interacts with BAK but not BAX, the ability of VDAC2 to modulate apoptosis mediated by BAK or BAX was tested. According to one hypothesis, VDAC2 might function as an inhibitor of BAK or VDAC2 itself might function as a proapoptotic factor once released from BAK. To address these alternatives VDAC 1 or VDAC2 was expressed in Bax -/- or Bak -/- singly deficient mouse embryonic fibroblasts (MEFs) followed by treatment with staurosporine or etoposide. […] Expression of VDAC2 inhibited tBID-induced apoptosis of Bax -/- cells but not Bak -/- cells, further supporting a selective role for VDAC2 in negatively regulating BAK-dependent apoptosis (FIG. 3B).

[3] = tested on: Bak -/- MEFs; assay: Annexin-V cell death after retroviral expression of VDAC1 or VDAC2 in Bak -/- MEFs; assay type: cell-based, mouse; conditions: Bak -/- cells, retroviral expression, 1.2 μM staurosporine or 10 μg/ml etoposide, Annexin-V
Protocol: as §1, §2
as §1, with “6” for “3A”, “that depict” for “illustrating”, “10 μg/ml etoposide.” for “1.2 μM staurosporine (STS).”
as §3

[4] = molecular target: T1, BAK-X complex (Mus musculus, UniProt O08734+Q60930); assay: BAK-X complex after retroviral transduction of BH3-only members in wt MEFs; assay type: cell-based; conditions: 24 hours following retroviral transduction, DSS
T1 construct: isolation of mitochondria (50 μg) from wild-type (wt) mouse embryonic fibroblasts (MEFs); endogenous in cells; host or cells: mitochondria from wt MEFs
T1 sequence (O08734 2-209 limits assumed): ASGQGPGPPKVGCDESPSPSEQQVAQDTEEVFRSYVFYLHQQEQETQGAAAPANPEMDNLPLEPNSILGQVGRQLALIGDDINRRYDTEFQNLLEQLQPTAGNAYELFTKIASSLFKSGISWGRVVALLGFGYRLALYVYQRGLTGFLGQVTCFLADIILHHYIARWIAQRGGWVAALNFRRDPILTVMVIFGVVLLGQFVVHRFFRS
T1 sequence (Q60930 1-295): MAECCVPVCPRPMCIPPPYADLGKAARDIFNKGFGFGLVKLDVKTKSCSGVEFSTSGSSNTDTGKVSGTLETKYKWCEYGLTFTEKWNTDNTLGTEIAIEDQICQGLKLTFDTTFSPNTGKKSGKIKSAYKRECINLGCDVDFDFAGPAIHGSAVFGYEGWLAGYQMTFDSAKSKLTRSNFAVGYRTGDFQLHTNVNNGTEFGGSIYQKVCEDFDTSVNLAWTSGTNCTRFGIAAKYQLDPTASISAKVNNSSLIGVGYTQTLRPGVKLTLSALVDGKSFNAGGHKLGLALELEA
Protocol: FIG. 1D is a photograph depicting isolated mitochondria from wt MEFs, in which the isolated mitochondria were treated with DSS 24 hours following retroviral transduction of tBID, BIM, or BAD. The BAK-X complex was detected by an immunoblot developed with an anti-BAK antibody.
(§4) Murine vdac1, vdac2, N-terminal HA-tagged vdac2, N-terminal-HA tagged Bax or Bak, as well as wild type and mutant Bak (mBH1, W122A, G123E, R124A; mBH3, L75E) were cloned into the retroviral expression vector MSCV-IRES-GFP (pMIG). PcDNA3-tBID (wt and mutants) was described previously M. C. Wei et al., Genes Dev 14, 2060-71. (2000). Generation of amphotropic retroviruses and retroviral infection were described previously E. H. Cheng et al., Mol Cell 8, 705-11. (2001).
Protein crosslinkers were used to search for a candidate protein that interacts with BAK at the mitochondria in viable cells. […] Wei et al., Genes Dev 14, 2060-71. (2000).

[5] = tested on: wt MEFs; assay: Cell killing by expression of BH3-only members; assay type: cell-based, mouse; conditions: retroviral expression
[6] = molecular target: T2, VDAC2 (Mus musculus, UniProt Q60930); assay: Anti-HA immunoprecipitation of HA-tagged VDAC2 with BH3-only molecules; assay type: binding
T2 construct: expressed in transfected cells; host or cells: vdac1 -/-, vdac3 -/- mouse fibroblasts; wt or vdac2 -/- MEFs; Bax, Bak doubly deficient MEFs (retrovirus pMIG)
T2 sequence (Q60930 1-295): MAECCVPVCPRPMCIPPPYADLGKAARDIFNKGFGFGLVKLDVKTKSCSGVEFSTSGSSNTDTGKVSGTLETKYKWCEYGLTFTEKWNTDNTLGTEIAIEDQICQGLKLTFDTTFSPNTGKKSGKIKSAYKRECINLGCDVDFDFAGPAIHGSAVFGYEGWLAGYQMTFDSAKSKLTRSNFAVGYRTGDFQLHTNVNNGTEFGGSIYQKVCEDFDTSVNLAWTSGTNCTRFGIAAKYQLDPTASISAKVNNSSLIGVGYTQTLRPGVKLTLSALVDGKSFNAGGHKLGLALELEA
Source text: as §4, with “(2001). Retroviral expression of each indicated protein was confirmed by immunoblot. […]” for “(2001).”
The strength of association between BIM-EL and VDAC2 was compared to the strength of the association, if any, between BIM-EL and BAK or BAX. Mitochondria isolated from Bax, Bak doubly deficient MEFs transduced with retrovirus expressing N-terminal HA-tagged BAX, BAK, or VDAC2 were solubilized in 1% CHAPS or 0.2% NP-40 buffer, followed by anti-HA immunoprecipitation. The immunoprecipitates were analyzed by an immunoblot developed with anti-BIM. […] These findings indicate that BH3-only competition for VDAC2 frees BAK, which, in the absence of its specific inhibitor VDAC2, is prone to auto-activating homo-oligomerization. […]

[7] = molecular target: T1, BAK-X complex; assay: DSS cross-linking of BAK-X complex in isolated mitochondria, anti-BAK immunoblot; assay type: biochemical; conditions: liver mitochondria 50 μg, 5 μl in vitro transcribed-translated mutant tBID, 30° C. 30 min
Protocol: FIG. 1A is an illustration depicting isolation of mitochondria (50 μg) from wild-type (wt) mouse embryonic fibroblasts (MEFs). The isolated mitochondria were incubated with recombinant tBID protein (50 ng) at 30° C. for 30 min, followed by treatment with the cross-linkers disuccinimidyl suberate (DSS) (10 mM) or bismaleimidohexane (BMH) (10 mM) at room temperature for 30 minutes. Higher order BAK complexes were identified by immunoblot developed with an anti-BAK antibody.
FIG. 1C is an illustration depicting treatment of mitochondria (50 μg) isolated from mouse liver, Bal17, Jurkat, and FL5.12 cells with 50 ng tBID protein at 30° C. for 30 min, followed by DSS cross-linking. The BAK-X complex was detected by an immunoblot developed with anti-BAK antibody.
FIG. 1E is a photograph depicting isolated liver mitochondria (50 μg) which were incubated with 5 μl of in vitro transcribed-translated wt or mutant tBID at 30° C. for 30 min, followed by DSS cross-linking. The BAK-X complex was detected by an immunoblot developed with anti-BAK antibody. […]
Protein crosslinkers were used to search for a candidate protein that interacts with BAK at the mitochondria in viable cells. A ˜60 kD mobility-shifted complex immunoreactive with an antibody (Ab) to BAK was detected after treatment of purified mitochondria (FIG. 1A) or viable whole cells (FIG. 1B) with the crosslinker disuccinimidyl suberate (DSS). […]

## COc1cc([C@@H]2c3cc4c(cc3[C@@H](O[C@@H]3O[C@@H]5CO[C@@H](C)O[C@H]5[C@H](O)[C@H]3O)[C@H]3COC(=O)[C@H]23)OCO4)cc(OC)c1O [etoposide]
[1]
  BAK-X complex when cells were treated with death stimuli: lost

## TNFα
[1]
  BAK-X complex when cells were treated with death stimuli: lost

B1: VDAC1: murine VDAC1 isoform, retrovirally expressed (protein)
chain: AVPPTYADLGKSARDVFTKGYGFGLIKLDLKTKSENGLEFTSSGSANTETTKVNGSLETKYRWTEYGLTFTEKWNTDNTLGTEITVEDQLARGLKLTFDSSFSPNTGKKNAKIKTGYKREHINLGCDVDFDIAGPSIRGALVLGYEGWLAGYQMNFETSKSRVTQSNFAVGYKTDEFQLHTNVNDGTEFGGSIYQKVNKKLETAVNLAWTAGNSNTRFGIAAKYQVDPDACFSAKVNNSSLIGLGYTQTLKPGIKLTLSALLDGKNVNAGGHKLGLGLEFQA
[2]
  apoptosis after staurosporine or etoposide: no substantial effect
[3]
  apoptosis after staurosporine or etoposide: no substantial effect

B2: BAD: BH3-only BCL-2 family member, retrovirally expressed (protein, UniProt Q61337 1-204, looked up)
Bcl2-associated agonist of …: MGTPKQPSLAPAHALGLRKSDPGIRSLGSDAGGRRWRPAAQSMFQIPEFEPSEQEDASATDRGLGPSLTEDQPGPYLAPGLLGSNIHQQGRAATNSHHGGAGAMETRSRHSSYPAGTEEDEGMEEELSPFRGRSRSAPPNLWAAQRYGRELRRMSDEFEGSFKGLPRPKSAGTATQMRQSAGWTRIIQSWWDRNLGKGGSTPSQ
[4]
  amount of BAK-X complex: diminished
[5]
  cell killing on expression: killed cells

B3: BIM: BH3-only BCL-2 family member, retrovirally expressed (protein, UniProt O54918 1-196, looked up)
Bcl-2-like protein 11: MAKQPSDVSSECDREGGQLQPAERPPQLRPGAPTSLQTEPQGNPDGEGDRCPHGSPQGPLAPPASPGPFATRSPLFIFVRRSSLLSRSSSGYFSFDTDRSPAPMSCDKSTQTPSPPCQAFNHYLSAMASIRQSQEEPEDLRPEIRIAQELRRIGDEFNETYTRRVFANDYREAEDHPQMVILQLLRFIFRLVWRRH
[4]
  amount of BAK-X complex: diminished
[5]
  cell killing on expression: killed cells

B4: BIM-EL: BH3-only molecule BIM-EL (protein)
chain: MAKQPSDVSSECDREGGQLQPAERPPQLRPGAPTSLQTEPQGNPDGEGDRCPHGSPQGPLAPPASPGPFATRSPLFIFVRRSSLLSRSSSGYFSFDTDRSPAPMSCDKSTQTPSPPCQAFNHYLSAMASIRQSQEEPEDLRPEIRIAQELRRIGDEFNETYTRRVFANDYREAEDHPQMVILQLLRFIFRLVWRRH
[6]; Bax, Bak doubly deficient MEFs with HA-tagged BAX, BAK or VDAC2, 1% CHAPS or 0.2% NP-40
  strength of association with VDAC2 compared to BAX or BAK: associate more strongly with VDAC2 than BAX or BAK
[6]; mitochondria, anti-HA immunoprecipitation, 1% CHAPS (or 0.2% NP40)
  interaction with HA-tagged VDAC2 (co-immunoprecipitation): strong interaction

B5: mIII.1: mutant tBID with BH3 mutation mIII.1, still capable of binding BAK (protein)
chain: GSQASRSFNQGRIEPDSESQEEIIHNIARHLAQIGDEAAHNIQPTLVRQLAAQFMNGSLSEEDKRNCLAKALDEVKTAFPRDMENDKAMLIMTMLLAKKVASHAPSLLRDVFHTTVNFINQNLFSYVRNLVRNEMD
[7]
  dissociation of the BAK-X complex by mutant tBID: caused dissociation
